Reference: paper PMC2572730, “Structural Basis for the Recognition of Histone H4 by the Histone-Chaperone RbAp46” (Structure(London, England:1993), 2008)

System: GST-histone H4 1–48
Test: Pull-down of 35S-labeled RbAp46 mutants with GST-histone H4 1–48
Type: binding
Conditions: autoradiogram, 300 mM NaCl, 20 mM Tris pH 8.0, 5 mM DTT, 0.1% (v/v) NP-40
Excerpt: Figure 2 Histone H4 Recognition by the RbAp46-Binding Pocket (A) Electrostatic surface potential of RbAp46 contoured and color coded at −91 kT (red) and +91 kT (blue). […] The histone H4 peptide is shown as a stick model. The histone H4-binding pocket in RbAp46 is mainly formed by the negatively charged PP loop (which terminates in Pro-362 and Pro-363) and a hydrophobic surface on the N-terminal α helix (helix 1). The interaction of histone H4 residues (Gln-27, Lys-31, Ile-34, Arg-35, Arg-36, Leu-37, Arg-39, and Arg-40) is shown. (B) Detailed view showing the interactions of the hydrophobic Ile-34 and Leu-37 histone H4 residues with Phe-29 and Leu-30 in helix 1 of RbAp46, as well as the positively charged Arg-36, Arg-39, and Arg-40 histone H4 residues with the backbone carbonyl groups in the PP loop and a cluster of acidic residues (Glu-356, Asp-357, and Asp-360) in RbAp46. […] In each experiment, the input lane contains 30% of the ^35S-labeled RbAp46 protein used in each of the pull-down assays. The experiments were carried out in 300 mM NaCl, 20 mM Tris (pH 8.0), 5 mM DTT, and 0.1% (v/v) NP-40.
Recombinant histone H4 and RbAp46 proteins were expressed and purified as described previously ([Verreault et al., 1998; Berger et al., 2004]). Detailed procedures for the generation of the RbAp46/histone H4 peptide and recombinant histone H4 complexes can be found in the Supplemental Data. […]

| Molecule | Effect of RbAp46 mutation on interaction with histone H4 |
| --- | --- |
| L30Y: RbAp46 mutated in the hydrophobic surface of helix 1 (protein, 35S-labeled, RbAp46 mutated in the hydrophobic surface of helix 1) MASKEMFEDTVEERVINEEYKIWKKNTPFYYDLVMTHALQWPSLTVQWLPEVTKPEGKDYALHWLVLGTHTSDEQNHLVVARVHIPNDDAQFDASHCDSDKGEFGGFGSVTGKIECEIKINHEGEVNRARYMPQNPHIIATKTPSSDVLVFDYTKHPAKPDPSGECNPDLRLRGHQKEGYGLSWNSNLSGHLLSASDDHTVCLWDINAGPKEGKIVDAKAIFTGHSAVVEDVAWHLLHESLFGSVADDQKLMIWDTRSNTTSKPSHLVDAHTAEVNCLSFNPYSEFILATGSADKTVALWDLRNLKLKLHTFESHKDEIFQVHWSPHNETILASSGTDRRLNVWDLSKIGEEQSAEDAEDGPPELLFIHGGHTAKISDFSWNPNEPWVICSVSEDNIMQIWQMAENIYNDE | disrupt the interaction with histone H4 |
| E356Q + D357N + E359Q + D360N: RbAp46 mutated in the charged PP loop (protein, UniProt Q16576 2-425, looked up, variant E356Q D357N E359Q D360N) Histone-binding protein RBBP7: ASKEMFEDTVEERVINEEYKIWKKNTPFLYDLVMTHALQWPSLTVQWLPEVTKPEGKDYALHWLVLGTHTSDEQNHLVVARVHIPNDDAQFDASHCDSDKGEFGGFGSVTGKIECEIKINHEGEVNRARYMPQNPHIIATKTPSSDVLVFDYTKHPAKPDPSGECNPDLRLRGHQKEGYGLSWNSNLSGHLLSASDDHTVCLWDINAGPKEGKIVDAKAIFTGHSAVVEDVAWHLLHESLFGSVADDQKLMIWDTRSNTTSKPSHLVDAHTAEVNCLSFNPYSEFILATGSADKTVALWDLRNLKLKLHTFESHKDEIFQVHWSPHNETILASSGTDRRLNVWDLSKIGEEQSAQNAQNGPPELLFIHGGHTAKISDFSWNPNEPWVICSVSEDNIMQIWQMAENIYNDEESDVTTSELEGQGS | disrupt the interaction with histone H4 |
